Where a chain is given by its changes, count along the chain named.

The target in test [1] is T1, Human ANGPTL4(26-406)-FLAG-His6-Avi (human, UniProt Q9BY76 24-406, biotin on the C-terminal Avi tag (BirA) where the protein is immobilised).
T1 sequence: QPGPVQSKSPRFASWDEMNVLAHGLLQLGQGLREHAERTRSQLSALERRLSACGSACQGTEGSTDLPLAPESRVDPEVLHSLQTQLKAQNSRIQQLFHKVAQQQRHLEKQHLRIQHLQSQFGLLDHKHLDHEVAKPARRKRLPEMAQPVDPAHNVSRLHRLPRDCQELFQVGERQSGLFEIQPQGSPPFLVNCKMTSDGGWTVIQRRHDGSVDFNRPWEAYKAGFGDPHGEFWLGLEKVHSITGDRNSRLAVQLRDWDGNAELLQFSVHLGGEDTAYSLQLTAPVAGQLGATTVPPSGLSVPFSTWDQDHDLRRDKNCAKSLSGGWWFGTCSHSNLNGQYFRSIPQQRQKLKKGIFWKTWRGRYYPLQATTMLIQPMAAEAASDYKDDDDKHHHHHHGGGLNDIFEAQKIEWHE
Nature of the test: cell-based or functional assay.

Test [2] has as its target T2, P4 (human).
T2 construct: linear 15-mer from the N-terminal coiled coil domain of human ANGPTL4
T2 peptide: FASWDEMNVLAHGLL
Nature of the test: linear peptide array on glass (JPT). As to the method:
(§1) The ability of selected antibodies of invention, namely NEG276 and NEG318, to bind to linear 15-amino-acid peptides derived from the N-terminal coiled coil domain of human ANGPTL4 was tested. The peptides were immobilized on a glass surface, and the ability of NEG276 and NEG318 to bind to the immobilized peptides was evaluated using experimental methods optimized for linear peptide epitope mapping at JPT Peptide Technologies (Berlin, Germany).

In test [3] the target is T3, P7 (human).
T3 construct: linear 15-mer from the N-terminal coiled coil domain of human ANGPTL4
T3 peptide: LAHGLLQLGQGLREH
Nature of the test: linear peptide array on glass (JPT). As to the method:
as §1

Test [4] has as its target T4, P13 (human).
T4 construct: linear 15-mer from the N-terminal coiled coil domain of human ANGPTL4; printed with Ser where ANGPTL4 has Cys
T4 peptide: TRSQLSALERRLSAS
Nature of the test: linear peptide array on glass (JPT). As to the method:
as §1

The target in test [5] is T5, P16 (human).
T5 construct: linear 15-mer from the N-terminal coiled coil domain of human ANGPTL4; printed with Ser where ANGPTL4 has Cys
T5 peptide: RRLSASGSASQGTEG
Briefly: linear peptide array on glass (JPT). The method, then:
as §1

The target in test [6] is T6, P17 (human).
T6 construct: linear 15-mer from the N-terminal coiled coil domain of human ANGPTL4; printed with Ser where ANGPTL4 has Cys
T6 peptide: SASGSASQGTEGSTD
Nature of the test: linear peptide array on glass (JPT). As to the method:
as §1

In test [7] the target is T7, P25 (human).
T7 construct: linear 15-mer from the N-terminal coiled coil domain of human ANGPTL4
T7 peptide: DPEVLHSLQTQLKAQ
Briefly: linear peptide array on glass (JPT). As to the method:
as §1

Test [8] concerns the target T8, P29 (human).
T8 construct: linear 15-mer from the N-terminal coiled coil domain of human ANGPTL4
T8 peptide: KAQNSRIQQLFHKVA
Briefly: linear peptide array on glass (JPT). As to the method: as §1

The target of test [9] is T9, P39 (human).
T9 construct: linear 15-mer from the N-terminal coiled coil domain of human ANGPTL4
T9 peptide: LQSQFGLLDHKHLDH
Nature of the test: linear peptide array on glass (JPT). The method, then: as §1

For test [10], the target named is T1, Human ANGPTL4(26-406)-FLAG-His6-Avi. Briefly: SET (solution equilibrium titration), MSD detection, IgG. The method, then:
SET assays were performed as follows. In a 96-well polypropylene plate, a constant concentration of ANGPTL4 antibody (10 pM) was mixed with different concentrations of non-biotinylated human, cyno, mouse, or rat full-length ANPGLT4 protein, or human ANGPTL4 N-terminal domain protein (5-fold serial dilution ranging from 0.01 pM to 100 nM) in SET buffer (PBS, pH 7.4 without CaCl₂) or MgCl₂, 0.5% w/v bovine serum albumin (fatty acid free) and 0.02% v/v Tween-20). The final reaction volume was 80 μL. The plate was sealed using an adhesive film and incubated at 22° C. for 14 hours with constant shaking (300 rpm). During the same period of time, a 384-well streptavidin-coated Meso Scale Discovery (MSD) plate was blocked by incubating the plate with 50 μL blocking buffer (PBS, pH 7.4, 5% w/v bovine serum albumin) per well at 4° C. The blocked MSD plate was washed 3 times with wash buffer (PBS, pH 7.4 and 0.05% v/v Tween-20) using a plate washer (BioTek). Biotinylated ANGPTL4 (full-length human, cyno, mouse, or rat ANGPTL4, or human ANGPTL4 N-terminal domain) protein (1 nM, 15 μL per well) was immobilized on the surface of the streptavidin-coated MSD plate by incubation at 22° C. for one hour with constant shaking (600 rpm). The plate was then washed 3 times as described earlier.
The equilibrium binding reactions (15 μL per well) were applied to the MSD plate with immobilized ANGPTL4 and incubated for 20 min at 22° C. The unbound material was removed by washing the plate 3 times with wash buffer, and the captured antibody was detected by adding 15 μL per well of a 1:500 dilution of Sulfo-tagged goat anti-human IgG (Meso Scale Discovery). The plate was then incubated for one hour with constant shaking (600 rpm). The plate was washed 3 times, and then 15 μL/well of 1× MSD read buffer T was added and the plate was developed using a Sector Imager 6000 (Meso Scale Discovery). The data were transferred to Microsoft Excel for analysis and plotted using GraphPad Prism v6. The KD values were determined by fitting the data to the following equation: […]
where Bₘₐₓ is the signal when no ANGPTL4 protein is present in solution, CAb is the constant concentration of ANGPTL4 antibody in solution, CAg is the concentration of ANGPTL4 in solution, and KD is the equilibrium dissociation constant.

For test [11] the target is unchanged. Briefly: Octet (ForteBio) kinetics, biotinylated antigen on streptavidin sensor, IgG in solution. As to the method:
Dissociation constants (KD) were determined for selected antibodies of the invention by using an Octet (ForteBio) kinetic binding assay. ForteBio 10× Kinetics Buffer (ForteBio, catalog number 18-5032) was diluted 10-fold with DPBS (Life Technologies, catalog number 14190-136), and the resulting solution was added (0.2 ml per well) to a 96-well plate (Greiner, catalog number 65520). Streptavidin sensors (ForteBio, catalog number 18-5020) were immersed in the solution and equilibrated for at least 10 min at room temperature. In a second 96-well plate (Greiner, catalog number 65520), sensors were washed in 1× Kinetics buffer, and then immersed in 200 ul of 25 nM biotinylated human ANGPTL4 or a biotinylated reference protein (for background subtraction) for 1000 sec at […] room temperature. […] The sensors were then transferred to a well containing 200 μl 1× Kinetics buffer, and antibody dissociation was monitored for 1200 seconds. Background-corrected association and dissociation curves were globally fitted by Octet Software (ForteBio) to generate association (kₐ) and dissociation (kd) rate constants, which in turn were used to calculate equilibrium dissociation constants (KD).
In general terms: In BLI a coated tip is dipped into the sample, and binding shifts an interference pattern.

B1: NEG276 (antibody, human IgG1, kappa)
heavy: not shown
light: EIVMTQSPATLSVSPGERATLSCKASQDIGSNLNWLQQKPGQAPRRLIYAVSNRGPGIPARFSGSRSGSEYTLTISSLQSEDFAVYYCLQYASSPWTFGQGTKVEIKRTVAAPSVFIFPPSDEQLKSGTASVVCLLNNFYPREAKVQWKVDNALQSGNSQESVTEQDSKDSTYSLSSTLTLSKADYEKHKVYACEVTHQGLSSPVTKSFNRGEC
notes: humanized, hIgG1/kappa, parental antibody 19C16
In the case of B1, in test [1], the “EC50 of the antibody-mediated increase in lipoprotein lipase enzyme activity (reversal of LPL inhibition by ANGPTL4)” value came out at 0.6 nM. Besides, the binding result in test [2], in [3], in test [4], in [5], in test [6] and in test [7] was “no binding” in each case. The binding result in test [8] and in [9] was “no binding” in each case. Moreover, the dissociation constant Kd in test [10] was 0.024 nM; in test [11], 0.023 nM. Also, the koff in [11] is 8e-06 s⁻¹. The kon in [11] stood at 340000 M⁻¹ s⁻¹.

B2: NEG278 (antibody, human IgG1, kappa, V domains shown)
VH: QVQLVQSGAEVKKPGASVKVSCKASAYTFTSSWMQWVRQAPGQGLEWMGEIDPSDNYANYNQKFQGRVTLTVDTSTSTAYMELSSLRSEDTAVYYCASGSYFSNFFDYWGQGTLVTVSS
VL: EIVMTQSPATLSVSPGERATLSCKASQDIGSNLNWLQQKPGQAPRRLIYAASVREPGIPARFSGSRSGSEYTLTISSLQSEDFAVYYCLQYASSPWTFGQGTKVEIKR
notes: as for B1
As to B2, in test [1], the “EC50 of the antibody-mediated increase in lipoprotein lipase enzyme activity (reversal of LPL inhibition by ANGPTL4)” value came out at 0.7 nM. The molecule also registered a Kd in test [10] of 0.015 nM. The on-rate constant (kon) in [11] stood at 300000 M⁻¹ s⁻¹.

B3: NEG276-LALA (antibody, human IgG1, kappa, L234A L235A)
heavy: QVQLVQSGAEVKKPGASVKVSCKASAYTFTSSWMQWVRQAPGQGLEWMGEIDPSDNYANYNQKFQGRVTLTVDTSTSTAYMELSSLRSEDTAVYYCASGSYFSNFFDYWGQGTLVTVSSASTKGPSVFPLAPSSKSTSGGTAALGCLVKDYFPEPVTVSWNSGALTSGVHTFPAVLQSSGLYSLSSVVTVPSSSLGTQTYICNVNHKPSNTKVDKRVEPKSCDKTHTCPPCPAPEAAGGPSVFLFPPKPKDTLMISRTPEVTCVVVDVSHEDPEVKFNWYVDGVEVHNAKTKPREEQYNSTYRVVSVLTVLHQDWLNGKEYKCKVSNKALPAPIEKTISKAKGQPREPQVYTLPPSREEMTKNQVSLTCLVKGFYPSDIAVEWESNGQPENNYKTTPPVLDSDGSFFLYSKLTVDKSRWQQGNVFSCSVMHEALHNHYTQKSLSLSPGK
light: B1 light
With B3, the “EC50 of the antibody-mediated increase in lipoprotein lipase enzyme activity (reversal of LPL inhibition by ANGPTL4)” value in test [1] is 0.7 nM. The same molecule came in with a Kd in test [10] of 0.008 nM.

B4: NEG315 (antibody, human IgG1, kappa, V domains shown)
VH: QVQLVQSGAEVKKPGASVKVSCKASGYTFTNYWITWVRQAPGQGLEWMGDFYPGGGNTNYNAKLQGRVTLTVDTSTSTAYMELRSLRSDDTAVYYCARSPPQVAPFDYWGQGTLVTVSS
VL: DIQMTQSPSSLSASVGDRVTITCQASEYIYNWLGWYQQKPGKAPKLLISGASGLETGVPSRFSGSGSGKDYTFTISSLQPEDIATYYCQQYWSTPWTFGQGTKLEIKR
notes: humanized, hIgG1/kappa, parental antibody 37P1
Take B4: in [1], the “EC50 of the antibody-mediated increase in lipoprotein lipase enzyme activity (reversal of LPL inhibition by ANGPTL4)” value came to 3 nM. In test [10], this molecule displayed a Kd of 0.012 nM. In test [11], this molecule yielded a Kd of 0.029 nM, a koff of 7.9e-06 s⁻¹ and a kon of 280000 M⁻¹ s⁻¹.

B5: NEG313 (antibody, human IgG1, kappa, V domains shown)
VH: B4 VH with T30N, N57S
VL: B4 VL with E27D, N31H
notes: as for B4
Take B5: the “EC50 of the antibody-mediated increase in lipoprotein lipase enzyme activity (reversal of LPL inhibition by ANGPTL4)” value in test [1] came out at 3 nM. Further, the Kd in [10] is 0.009 nM. In test [11], the affinity, expressed as Kd, was 0.04 nM; the koff turned out to be 1.1e-05 s⁻¹; the kon came to 280000 M⁻¹ s⁻¹.

B6: NEG319 (antibody, human IgG1, kappa, V domains shown)
VH: B4 VH with N31S, Y32F, F51I, G56A, A62E, A104G
VL: B4 VL with Y30I, G34A, S52T, T94I
notes: humanized, hIgG1/kappa, parental antibody 14P18
In the case of B6, in test [1], the “EC50 of the antibody-mediated increase in lipoprotein lipase enzyme activity (reversal of LPL inhibition by ANGPTL4)” value was 0.5 nM. In addition, in [10], binding was put at a Kd of 0.016 nM. Also, in [11], the Kd is 0.036 nM, the off-rate constant (koff) is 1e-05 s⁻¹ and the kon amounted to 280000 M⁻¹ s⁻¹.

B7: NEG318 (antibody, human IgG1, kappa, V domains shown)
VH: B4 VH with N31S, Y32F, F51I, G56A, N57T, A62E, A104G
VL: B4 VL with E27D, N31H, G34A, G53S, T94I
notes: as for B6
For the molecule B7, in [1], the “EC50 of the antibody-mediated increase in lipoprotein lipase enzyme activity (reversal of LPL inhibition by ANGPTL4)” value was 1.4 nM. Besides, the binding result in test [2], in [3], in test [4], in test [5], in [6] and in [7] was “no binding” throughout. Further, the binding result in test [8] and in [9] was “no binding” throughout. The figures for the Kd in test [10] and in test [11] were 0.009 nM and 0.045 nM, respectively. The same molecule displayed a koff in test [11] of 1.2e-05 s⁻¹. The molecule further showed a kon in [11] of 270000 M⁻¹ s⁻¹.

B8: NEG310 (antibody, human IgG1, kappa, V domains shown)
VH: QVQLVQSGAEVKKPGASVKVSCKASGYTFTSYTMHWVRQAPGQGLEWMGYINPSSGYTKYNQKFQGRVTMTADKSTSTAYMELSSLRSEDTAVYYCAEGWLLLAMDYWGQGTLVTVSS
VL: EAVVTQSPATLSLSPGERATLSCRSSTGAVTTSNYAIWVQEKPGQAPRGLIGGTNNRAPGIPARFSGSLSGDDATLTISSLQPEDFAVYFCALWYSDHWVFGQGTKVEIKR
notes: humanized, hIgG1/kappa, parental antibody 17B1
With B8, the “EC50 of the antibody-mediated increase in lipoprotein lipase enzyme activity (reversal of LPL inhibition by ANGPTL4)” value in test [1] amounted to 1.6 nM. The molecule also yielded a Kd in test [10] of 0.021 nM. In test [11], the affinity, expressed as Kd, was 0.025 nM; the koff was found to be 1.1e-05 s⁻¹; the kon amounted to 220000 M⁻¹ s⁻¹.

Broadly, the Kd is the concentration at which binding is half-saturated. Usually koff stands for the first-order rate constant of dissociation. Usually kon stands for a measure of how fast the partners come together.

For the origin of these results see US20220213181A1 (Novartis, published 2022).
